{"source": "paper PMC9927474", "tested_on": "T1, GST-NolA (Bradyrhizobium guangxiense CCBAU53363), ORF:43be7f56", "T1 sequence": "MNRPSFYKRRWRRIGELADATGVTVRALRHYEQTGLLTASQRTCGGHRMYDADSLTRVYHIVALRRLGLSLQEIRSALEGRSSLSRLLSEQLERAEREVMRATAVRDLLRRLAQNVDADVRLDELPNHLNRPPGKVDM", "experiment": "EMSA", "details": "EMSA: 10 uL, 1x binding buffer (composition, salt and pH not stated), 1 mg/mL BSA, 1 mg/mL salmon sperm DNA, 25 C, 30 min; 6% native PAGE in TB buffer (44.5 mM …)", "data": [{"sequence": "TGTGAACCATAGGAGAGTGCTCATCATGTACGGTCGAATCAACAATTTTTCCGAGAACGAAACTTATTATCGGCAAGATGCGGAGCATTCGAATTGCGAAAGCCAAGACTTCGCGGACGCGTTCGCTAGAATGCAGTTGCAAGATTCGGCCGGCAG (double strand) [nopP promoter probe]", "values": [{"measurement": "binding", "result": "no binding"}]}]}
